In one assay the target is T1, catalase (Bos taurus, UniProt P00432).
T1 sequence (P00432 2-527 limits assumed): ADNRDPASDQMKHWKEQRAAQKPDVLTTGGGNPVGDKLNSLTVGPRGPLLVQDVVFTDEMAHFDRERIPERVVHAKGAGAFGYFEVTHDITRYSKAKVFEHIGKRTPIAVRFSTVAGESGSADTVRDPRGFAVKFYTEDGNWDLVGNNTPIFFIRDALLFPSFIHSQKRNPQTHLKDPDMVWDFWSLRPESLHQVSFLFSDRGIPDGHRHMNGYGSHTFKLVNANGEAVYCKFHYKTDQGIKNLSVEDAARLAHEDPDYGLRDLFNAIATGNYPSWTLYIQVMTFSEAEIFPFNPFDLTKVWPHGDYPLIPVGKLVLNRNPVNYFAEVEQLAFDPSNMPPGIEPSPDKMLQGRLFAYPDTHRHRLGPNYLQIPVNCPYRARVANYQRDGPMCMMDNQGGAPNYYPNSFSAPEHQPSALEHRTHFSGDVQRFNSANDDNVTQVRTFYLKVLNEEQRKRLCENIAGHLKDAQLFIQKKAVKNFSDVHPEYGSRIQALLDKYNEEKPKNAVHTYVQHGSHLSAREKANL
Kind of assay: Catalase enzymatic activity (method of Beers and Sizer). Type of assay: biochemical. The conditions noted are these: native enzyme. From the text: (§1) To evaluate the different influence on enzyme properties as a function of polymerization with POZ derivatives of the present disclosure and corresponding PEG polymers known in the art, three different enzymes, ribonuclease A, uricase and catalase, were modified with M-PEOZ-O—CH2—CO2—NHS (6 kDa) and PEG-O—CH2—CO2—NHS (5.5 kDa). To facilitate the comparison, each enzyme was modified under similar conditions regarding polymer to enzyme ratios, buffer, pH and reaction temperature.
The conditions of enzyme modification with the POZ and PEG polymers described above were 0.2 M, pH 8.5 in borate buffer. The amount of POZ and PEG polymer used for modification was calculated on the basis of calculated total available amino groups in each enzyme. […]
To the three enzymes solutions (2.5 mg/ml) M-POZ-O—CH2—CO2—NHS or PEG-O—CH2—CO2—NHS solid were added at room temperature at a molar ratio of polymer to protein amino groups of 2/1 and 1/1 respectively. Protein concentration of the native forms of ribonuclease, uricase and catalase was evaluated spectrophotometrically using molar extinction coefficients of 9.45×10^3, 13×10^3 and 1.67×10^5 at 280 nm, respectively. […]
The degree of protein modification was evaluated colorimetrically by TNBS assay and expressed as percentage of conjugate amino groups to the total ones present on the protein. […]

Another assay concerns the target T2, ribonuclease A (Bos taurus, UniProt P61823).
T2 sequence (P61823 27-150): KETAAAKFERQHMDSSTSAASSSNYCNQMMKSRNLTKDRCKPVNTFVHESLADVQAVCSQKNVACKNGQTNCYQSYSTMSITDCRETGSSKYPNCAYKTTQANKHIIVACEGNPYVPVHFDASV
Kind of assay: Ribonuclease enzymatic activity (method of Crook et al.). The class given is biochemical.
Excerpt: as §1
The conditions of enzyme modification with the POZ and PEG polymers described above were 0.2 M, pH 8.5 in borate buffer. The amount of POZ and PEG polymer used for modification was calculated on the basis of calculated total available amino groups in each enzyme. For example, ribonuclease A has a molecular weight of 13.7 kDa and 11 available amino groups; uricase has a molecular weight of 130 kDa and 100 available amino groups; and catalase has a molecular weight of 240 kDa and 112 available amino groups.
To the three enzymes solutions (2.5 mg/ml) M-POZ-O—CH2—CO2—NHS or PEG-O—CH2—CO2—NHS solid were added at room temperature at a molar ratio of polymer to protein amino groups of 2/1 and 1/1 respectively. Protein concentration of the native forms of ribonuclease, uricase and catalase was evaluated spectrophotometrically using molar extinction coefficients of 9.45×10^3, 13×10^3 and 1.67×10^5 at 280 nm, respectively. After 30 minutes, polymer-enzyme conjugates were purified from unreacted polymer and n-hydroxysuccinimide by gel filtration chromatography Sephadex G-75 column, with 0.1M phosphate buffer, pH 7.4 as eluent.
The degree of protein modification was evaluated colorimetrically by TNBS assay and expressed as percentage of conjugate amino groups to the total ones present on the protein. Enzymatic activity of native and modified enzymes was evaluated as follows: ribonuclease activity was assayed by the method of Crook et al. (Biochem J. 1960 February; 74:234-8); uricase activity was determined by the method of Mahler (Anal Biochem. 1970 November; 38(1):65-84); and catalase was assayed according to a method reported by Beers and Sizer (J. Biol. Chem. 1952 March; 195(1):133-40).

With Catalase, the “% activity” value on catalase is recorded as 100%.

B1: RNAse: native ribonuclease A (protein, UniProt P61823 27-150, looked up)
Ribonuclease pancreatic: T2 sequence (P61823 27-150)
Consider B1, for which the “% activity” value with ribonuclease A (native enzyme) is 100%.

B2: POZ/RNAse: ribonuclease A modified with M-PEOZ-O—CH2—CO2—NHS (6 kDa) (conjugate, UniProt P61823 27-150, looked up)
Ribonuclease pancreatic: T2 sequence (P61823 27-150)
modifications: M-PEOZ 6 kDa conjugate
For B2, the figures for the “% activity” value in the assay with ribonuclease A (NH2:polymer molar ratio 1:1) and with ribonuclease A (NH2:polymer molar ratio 2:1) were 50% and 30%, respectively.

B3: PEG/RNAse: ribonuclease A modified with PEG-O—CH2—CO2—NHS (5.5 kDa) (conjugate, UniProt P61823 27-150, looked up)
Ribonuclease pancreatic: T2 sequence (P61823 27-150)
modifications: PEG 5.5 kDa conjugate
On to B3, for which the “% activity” value in the assay with ribonuclease A (NH2:polymer molar ratio 1:1) was 15%; with ribonuclease A (NH2:polymer molar ratio 2:1) it was 10%.

Values taken from patent publication US7943141B2, “Activated polyoxazolines and compositions comprising the same” (Serina Therapeutics, Inc., priority 2007, dated 2011).
